Test results published in patent EP2216341A1, “Transferrin variants and conjugates” (Novozymes Biopharma UK Limited, priority 2009, dated 2010).

Assays:
[1] = test system: K562 erythroleukemic cells; test: 55Fe uptake from labeled diferric transferrin in erythroleukemic K562 cells; type: cell-based, human; conditions: 25 minutes at 37°C
Procedure: Human plasma-derived apo-transferrin (Calbiochem 616419, tissue culture grade, pyrogen-free) is supplied lyophilised from 10mM phosphate buffer, pH7.4. The transferrin mutein is expressed, purified and quantified as described above.
For iron-55 uptake from labeled diferric transferrin, K562 erythroleukemic cells, cultured in RPMI cell culture medium under standard conditions (bicarbonate-buffered, 5% (v/v) CO2, antibiotics, 10% (v/v) fetal calf serum) are washed with serum-free medium containing HEPES-buffer and 1 mg/ml of bovine serum albumin and used at a concentration of 10 million cells/ml in this medium. The samples tested are prepared as equimolar concentrations of apo-transferrin mutein. Apo-transferrin mutein is loaded with iron according to a standard procedure (Bates and Schlabach, J Biol Chem, 248, 3228-3232, 1973) using ferric nitrilotriacetate as iron source. Typically 50µl of 1 M NaClO4 is added to 450µl of the transferrin mutein stock-solution (pH is alkaline to neutral). The ^55Fe -NTA-loading-buffer is prepared by mixing 8.5µl 50mM NTA (pH 8.25), 18.9µl 0.1M Tris, 98.8µl Millipore-purified water and 7.5µl ^55FeCl3 in 0.5 N HCl (NEN products). 500µl of transferrin mutein is carefully mixed (dropwise) with the ^55Fe -NTA-loading-buffer and then 310µl of 5mM Hepes. NaOH/0.1M NaClO4 is added. The mixture is incubated at 4°C for 60 min following which it is deslated on a PD-10 column (containing Sephadex G-25) and dialysed. The PD-10 column is equilibrated with 5ml of equilibration buffer (5mM Hepes/NaOH, 0.1M NaClO4, 0.1 g BSA (Amresco)) then washed three times with 5ml of wash buffer (5mM Hepes/NaOH, 0.1M NaClO4). […]
Increasing concentrations of human plasma transferrin or the transferrin mutein sample (0, 25, 100, 200, 400, 800, 1600 nM), labeled with ^55Fe, are mixed with 25 µl of medium. […] The lysates are neutralized with 1 M HCl after overnight lysis, mixed with Readysolv Scintillation cocktail and counted in the Packard Liquid Scintillation Counter. […]

[2] = target: T1, transferrin receptor 1 (TfR1) (Homo sapiens, UniProt P02786); test: Transferrin receptor 1 binding by Surface Plasmon Resonance (SPR, Biacore); conditions: fluorescein conjugated sample
T1 construct: purchased AbD Serotec 9110-300
From the text: The receptor binding capability of the recombinant transferrin variants can be determined by Surface Plasmon Resonance (SPR) analysis. The binding activity of a transferrin sample to a transferrin receptor can be measured using surface plasmon resonance (SPR) a non-invasive optical technique in which the SPR response is a measure of change in mass concentration at the detector surface as molecules bind or dissociate. A sample is sent onto the surface of the sensor chip via a micro flow system at a constant flow rate. In this analysis, if the transferrin sample is able to bind to the Transferrin Receptor the mass on the surface sensor chip is increased due to binding between Transferrin Receptor and Transferrin molecules creating a surface plasmon wave, and a shift of the SPR signal proportional to the binding quantity can be detected as a change in the resonance unit (RU). […]
The binding capacity of human serum transferrin to human trabnsferrin receptor 1 may be measured by SPR. […]
The receptor binding capability of the recombinant transferrin variants was assessed by Surface Plasmon Resonance (SPR) analysis. The binding activity of a transferrin sample to transferrin receptor can be measured using surface plasmon resonance (SPR) a non-invasive optical technique in which the SPR response is a measure of change in mass concentration at the detector surface as molecules bind or dissociate. […]

T1 sequence (P02786 whole entry): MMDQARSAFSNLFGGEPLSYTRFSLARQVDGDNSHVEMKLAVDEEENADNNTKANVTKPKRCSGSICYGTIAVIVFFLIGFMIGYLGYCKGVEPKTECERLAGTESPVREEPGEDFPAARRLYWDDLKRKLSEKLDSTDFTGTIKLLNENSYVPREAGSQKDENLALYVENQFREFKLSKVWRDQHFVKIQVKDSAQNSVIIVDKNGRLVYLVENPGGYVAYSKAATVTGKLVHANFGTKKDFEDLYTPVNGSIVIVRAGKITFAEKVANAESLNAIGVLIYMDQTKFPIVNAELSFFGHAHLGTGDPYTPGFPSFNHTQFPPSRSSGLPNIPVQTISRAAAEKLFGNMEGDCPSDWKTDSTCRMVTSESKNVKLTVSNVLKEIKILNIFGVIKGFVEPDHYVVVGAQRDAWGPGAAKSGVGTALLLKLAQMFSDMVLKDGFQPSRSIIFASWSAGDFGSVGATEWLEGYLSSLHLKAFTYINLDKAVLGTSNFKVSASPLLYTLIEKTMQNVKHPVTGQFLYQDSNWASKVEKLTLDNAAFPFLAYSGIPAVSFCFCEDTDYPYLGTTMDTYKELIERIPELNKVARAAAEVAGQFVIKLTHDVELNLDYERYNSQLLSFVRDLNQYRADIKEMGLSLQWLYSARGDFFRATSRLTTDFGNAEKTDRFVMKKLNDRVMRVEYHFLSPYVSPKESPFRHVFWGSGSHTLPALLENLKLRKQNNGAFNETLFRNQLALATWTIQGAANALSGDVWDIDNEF

B1: Fluorescein conjugated thio-transferrin (S28C, S415A, T613A): Thiotransferrin (S28C, S415A, T613A) conjugated with fluorescein (conjugate, UniProt P02787 20-698, looked up, variant S28C S415A T613A)
Serotransferrin: VPDKTVRWCAVSEHEATKCQSFRDHMKCVIPSDGPSVACVKKASYLDCIRAIAANEADAVTLDAGLVYDAYLAPNNLKPVVAEFYGSKEDPQTFYYAVAVVKKDSGFQMNQLRGKKSCHTGLGRSAGWNIPIGLLYCDLPEPRKPLEKAVANFFSGSCAPCADGTDFPQLCQLCPGCGCSTLNQYFGYSGAFKCLKDGAGDVAFVKHSTIFENLANKADRDQYELLCLDNTRKPVDEYKDCHLAQVPSHTVVARSMGGKEDLIWELLNQAQEHFGKDKSKEFQLFSSPHGKDLLFKDSAHGFLKVPPRMDAKMYLGYEYVTAIRNLREGTCPEAPTDECKPVKWCALSHHERLKCDEWSVNSVGKIECVSAETTEDCIAKIMNGEADAMSLDGGFVYIAGKCGLVPVLAENYNKADNCEDTPEAGYFAIAVVKKSASDLTWDNLKGKKSCHTAVGRTAGWNIPMGLLYNKINHCRFDEFFSEGCAPGSKKDSSLCKLCMGSGLNLCEPNNKEGYYGYTGAFRCLVEKGDVAFVKHQTVPQNTGGKNPDPWAKNLNEKDYELLCLDGTRKPVEEYANCHLARAPNHAVVTRKDKEACVHKILRQQQHLFGSNVADCSGNFCLFRSETKDLLFRDDTVCLAKLHDRNTYEKYLGEEYVKAVGNLRKCSTSSLLEACTFRRP
modifications: fluorescein conjugate
Specific iron ptake Bmax ([1]; 55Fe-labeled sample 0-1600 nM, specific uptake (unspecific binding with hundredfold excess unlabeled diferric transferrin accounted for)): 2430±125 fmol^55Fe/10^6 cells 25min
Total Iron Uptake Bmax ([1]; 55Fe-labeled sample 0-1600 nM, total uptake): 3294±170 fmol^55Fe/10^6 cells x 25min
Kd ([1]; specific uptake, read-out: Specific iron ptake Kd x): 154 ± 32 nM
ability to bind to transferrin receptor 1 (measured by SPR) [2]: able to bind to transferrin receptor 1
